# In publication PMC6057269, “A Flat BAR Protein Promotes Actin Polymerization at the Base of Clathrin-Coated Pits” (Cell, 2018):
# Changes are numbered by the printed parent chain.
# T1: ITSN1 SH3d (aa1076-1138), recombinant (human, UniProt Q15811-1 1076-1138)
# T1 construct: Intersectin 1 long form (ITSN1L), human, fourth SH3 domain (SH3d), residues 1076-1138; The purification of this protein is not described; the tag was probably cleaved as for the FCHSD2 proteins (surmised); also called pOPINS-ITSN1-SH3d; source: E. coli, 6xHis-SUMO construct (pOPINS)
# T1 sequence (looked up): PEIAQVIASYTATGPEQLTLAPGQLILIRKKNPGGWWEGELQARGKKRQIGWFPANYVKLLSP
# T2: GST-tagged ITSN1 SH3d (aa1076-1138) T1086A (human, UniProt Q15811-1 1076-1138, T1086A)
# T2 construct: Intersectin 1 long form (ITSN1L), human, SH3d, residues 1076-1138; also called crystal contact control mutant T1086; not shown: GST, N-terminal, kept
# T2 sequence (looked up): T1 sequence (looked up) with T11A
# B1: GST-tagged FCHSD2 SH3-2 (aa568-629) N613A (domain or fragment, human, UniProt O94868-1 568-629, looked up)
# chain: SVCFVKALYDYEGQTDDELSFPEGAIIRILNKENQDDDGFWEGEFAGRIGVFPSVLVEELSA
# notes: FCHSD2, human, second SH3 domain, residues 568-629; also called crystal contact control mutant N613; not shown: GST, N-terminal, kept
# B2: GST-tagged FCHSD2 SH3-2 (aa568-629) D583A (domain or fragment, human, UniProt O94868-1 568-629, looked up)
# chain: B1 chain with D16A, A46N
# notes: FCHSD2, human, second SH3 domain, residues 568-629; also called crystal contact control mutant D583; not shown: GST, N-terminal, kept
# B3: FCHSD2 SH3-2 (aa568-629), recombinant (domain or fragment, human, UniProt O94868-1 568-629, looked up)
# chain: B1 chain with A46N
# notes: FCHSD2, human, second SH3 domain, residues 568-629; that the same preparation was the prey of the GST pull-downs and the ITC sample is surmised; also called pOPINS-FCHSD2 SH3-2; F2S2; source: E. coli Rosetta (DE3), purified (HisTrap, anion exchange, Sumo protease, Superdex 200); not shown: His-SUMO, N-terminal, cleaved
# B4: FCHSD2 BAR + SH3-1 + SH3-2 (F2B12: aa1-629) (domain or fragment, human, UniProt O94868-1 1-629, looked up)
# chain: MQPPPRKVKVTQELKNIQVEQMTKLQAKHQAECDLLEDMRTFSQKKAAIEREYAQGMQKLASQYLKRDWPGVKADDRNDYRSMYPVWKSFLEGTMQVAQSRMNICENYKNFISEPARTVRSLKEQQLKRCVDQLTKIQTELQETVKDLAKGKKKYFETEQMAHAVREKADIEAKSKLSLFQSRISLQKASVKLKARRSECNSKATHARNDYLLTLAAANAHQDRYYQTDLVNIMKALDGNVYDHLKDYLIAFSRTELETCQAVQNTFQFLLENSSKVVRDYNLQLFLQENAVFHKPQPFQFQPCDSDTSRQLESETGTTEEHSLNKEARKWATRVAREHKNIVHQQRVLNDLECHGAAVSEQSRAELEQKIDEARENIRKAEIIKLKAEARLDLLKQIGVSVDTWLKSAMNQVMEELENERWARPPAVTSNGTLHSLNADTEREEGEEFEDNMDVFDDSSSSPSGTLRNYPLTCKVVYSYKASQPDELTIEEHEVLEVIEDGDMEDWVKARNKVGQVGYVPEKYLQFPTSNSLLSMLQSLAALDSRSHTSSNSTEAELVSGSLNGDASVCFVKALYDYEGQTDDELSFPEGAIIRILNKENQDDDGFWEGEFNGRIGVFPSVLVEELSA
# notes: FCHSD2, human, F-BAR + SH3-1 + SH3-2, residues 1-629; also called FCHSD2 (F2B12 construct); source: E. coli Rosetta (DE3), purified (HisTrap, anion exchange, Sumo protease, Superdex 200); not shown: His-SUMO, N-terminal, cleaved
# B5: FCHSD2 BAR + SH3-1 (F2B1: aa1-530) (domain or fragment, human, UniProt O94868-1 1-530, looked up)
# chain: MQPPPRKVKVTQELKNIQVEQMTKLQAKHQAECDLLEDMRTFSQKKAAIEREYAQGMQKLASQYLKRDWPGVKADDRNDYRSMYPVWKSFLEGTMQVAQSRMNICENYKNFISEPARTVRSLKEQQLKRCVDQLTKIQTELQETVKDLAKGKKKYFETEQMAHAVREKADIEAKSKLSLFQSRISLQKASVKLKARRSECNSKATHARNDYLLTLAAANAHQDRYYQTDLVNIMKALDGNVYDHLKDYLIAFSRTELETCQAVQNTFQFLLENSSKVVRDYNLQLFLQENAVFHKPQPFQFQPCDSDTSRQLESETGTTEEHSLNKEARKWATRVAREHKNIVHQQRVLNDLECHGAAVSEQSRAELEQKIDEARENIRKAEIIKLKAEARLDLLKQIGVSVDTWLKSAMNQVMEELENERWARPPAVTSNGTLHSLNADTEREEGEEFEDNMDVFDDSSSSPSGTLRNYPLTCKVVYSYKASQPDELTIEEHEVLEVIEDGDMEDWVKARNKVGQVGYVPEKYLQFPTS
# notes: FCHSD2, human, F-BAR + SH3-1, residues 1-530; also called FCHSD2 F-BAR+SH3-1; source: E. coli Rosetta (DE3), purified (HisTrap, anion exchange, Sumo protease, Superdex 200); not shown: His-SUMO, N-terminal, cleaved
# Experiments:
# [1] = target: T1, ITSN1 SH3d (aa1076-1138), recombinant; assay: pull-down; GST-tagged SH3 domains on glutathione beads incubated with recombinant protein for 10 min at room temperature, 6 washes; Coomassie stained gel; settings: both partners purified
# [2] = target: T1, ITSN1 SH3d (aa1076-1138), recombinant; assay: ITC; isothermal titration calorimetry of FCHSD2 SH3-2 and ITSN1 SH3d; conditions and direction of titration not told; settings: both partners purified
# [3] = target: T2, GST-tagged ITSN1 SH3d (aa1076-1138) …; assay: pull-down; GST-tagged SH3 domains on glutathione beads incubated with recombinant protein for 10 min at room temperature, 6 washes; Coomassie stained gel; settings: both partners purified
# [4] = target: the molecule itself; assay: SEC-MALS; Superdex S-200 10/300, 150 mM NaCl, 20 mM HEPES pH 7.5, 500 μM TCEP; F2B12 at two concentrations
# [5] = target: the molecule itself; assay: cryo-EM structure; single particle cryo-EM of F2B1 at 0.15-0.3 mg/ml; C2 symmetry applied; 9.2 Å reconstruction
binder,measurement,setting,value
B1,binding result,[1],binds
B2,binding result,[1],binds
B3,Kd,[2],248 nM
same,stoichiometry N,[2],~1
same,binding result,[3],binds
B4,stoichiometry N,[4],2
B5,binding result,[5],binds
